Reference: article PMC8636562, “Mounting, structure and autocleavage of a type VI secretion-associated Rhs polymorphic toxin” (Nature Communications, 2021)

How the values were obtained:
[1] = biological target: T1, Rhs1 D1338N Y1351A Y1375A, C-terminally FLAG-tagged (catalytic-null mutant used for cryo-EM) (Photorhabdus laumondii (P. luminescens …, UniProt Q7N9I0 1-1471, D1338N | Y1351A | Y1375A)); assay: cryo-EM structure; EagR-Strep/Rhs1-FLAG (D1338N, Y1351A, Y1375A) complex purified by StrepTrap and Superose 6; single particle, Talos Arctica 200 kV; 3.72 Å unmasked map, 3.17 Å masked on the Rhs1 shell; EagR dimer homology model fitted in low-resolution density; conditions: both partners purified
T1 construct: Rhs1 (Plu0353) of Photorhabdus laumondii with D1338N (no C-terminal autocleavage) and Y1351A, Y1375A (no toxicity); atomic model built for residues 272-1357; also called Rhs1^FL; source: E. coli BL21(DE3), co-purified with EagR (StrepTrap HP, Superose 6)
T1 sequence (looked up): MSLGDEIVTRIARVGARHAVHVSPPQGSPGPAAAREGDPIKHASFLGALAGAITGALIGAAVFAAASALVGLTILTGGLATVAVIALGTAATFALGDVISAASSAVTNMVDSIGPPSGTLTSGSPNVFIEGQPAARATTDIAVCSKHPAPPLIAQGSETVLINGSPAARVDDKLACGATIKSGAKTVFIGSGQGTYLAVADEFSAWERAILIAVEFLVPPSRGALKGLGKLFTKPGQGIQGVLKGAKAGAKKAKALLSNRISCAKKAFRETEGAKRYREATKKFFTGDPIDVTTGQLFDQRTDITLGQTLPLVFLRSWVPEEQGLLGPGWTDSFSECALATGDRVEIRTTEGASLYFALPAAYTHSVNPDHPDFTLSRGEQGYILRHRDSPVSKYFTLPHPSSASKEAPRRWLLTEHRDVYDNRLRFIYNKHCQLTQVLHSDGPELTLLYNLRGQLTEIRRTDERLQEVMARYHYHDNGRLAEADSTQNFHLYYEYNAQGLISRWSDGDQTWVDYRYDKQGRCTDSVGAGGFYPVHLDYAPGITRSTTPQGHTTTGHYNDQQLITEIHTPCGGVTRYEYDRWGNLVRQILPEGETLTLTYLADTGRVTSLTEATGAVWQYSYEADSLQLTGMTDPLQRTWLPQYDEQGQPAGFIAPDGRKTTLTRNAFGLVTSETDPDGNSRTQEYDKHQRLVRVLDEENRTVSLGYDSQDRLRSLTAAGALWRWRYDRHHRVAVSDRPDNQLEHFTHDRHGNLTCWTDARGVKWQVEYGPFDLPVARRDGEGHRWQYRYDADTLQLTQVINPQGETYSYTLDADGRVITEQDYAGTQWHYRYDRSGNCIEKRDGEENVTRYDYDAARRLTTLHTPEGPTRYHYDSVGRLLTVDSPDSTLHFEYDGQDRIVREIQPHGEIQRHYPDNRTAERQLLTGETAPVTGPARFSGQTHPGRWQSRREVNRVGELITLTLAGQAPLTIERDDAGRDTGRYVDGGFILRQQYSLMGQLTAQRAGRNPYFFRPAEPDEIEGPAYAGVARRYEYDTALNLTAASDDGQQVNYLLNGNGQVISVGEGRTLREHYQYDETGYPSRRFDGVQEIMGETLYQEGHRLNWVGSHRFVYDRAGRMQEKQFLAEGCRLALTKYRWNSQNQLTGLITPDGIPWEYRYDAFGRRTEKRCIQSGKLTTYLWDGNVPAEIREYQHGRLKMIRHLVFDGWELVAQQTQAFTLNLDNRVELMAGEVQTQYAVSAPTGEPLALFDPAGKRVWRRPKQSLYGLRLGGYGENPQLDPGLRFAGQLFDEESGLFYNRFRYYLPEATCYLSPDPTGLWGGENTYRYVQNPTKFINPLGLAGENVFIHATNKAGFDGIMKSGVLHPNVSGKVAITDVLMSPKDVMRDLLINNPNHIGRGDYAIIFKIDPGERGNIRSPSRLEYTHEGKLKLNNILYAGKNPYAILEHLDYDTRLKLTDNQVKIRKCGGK

[2] = biological target: the molecule itself; assay: as above

B1: Photorhabdus laumondii EagR chaperone (Plu0354), C-terminally Strep-tagged (natural protein)
chain: MENTTYQMNEGSLAIPGNWRDESMNVFVLPDDSGINLVVSRTPVPAGMDNPAYYEQTLEQFCTHLPGYQEHQRSEITLSQQPARRLDYQWTSPEGDMYQTVILQIRGPLLLTFNLTSPAPFEAGQRDTLLAIVHSFQAA
notes: Eag (DUF1795) family chaperone EagR of Photorhabdus laumondii, Plu0354; also called ^STEagR; EagR^ST; source: E. coli BL21(DE3), co-produced, in total cell extract; also purified in complexes (Strep-Tactin resin; StrepTrap HP and Superose 6); not shown: Strep-tag, C-terminal, kept
**Q.** Does B1 bind [1]?
**A.** binds

**Q.** Does B1 bind [2]?
**A.** binds
